Experimental findings from US20060204957A1 (published 2006) are described below.

One experiment concerns the target T1, MTA1s-stop (human, UniProt Q13330 1-397).
T1 sequence: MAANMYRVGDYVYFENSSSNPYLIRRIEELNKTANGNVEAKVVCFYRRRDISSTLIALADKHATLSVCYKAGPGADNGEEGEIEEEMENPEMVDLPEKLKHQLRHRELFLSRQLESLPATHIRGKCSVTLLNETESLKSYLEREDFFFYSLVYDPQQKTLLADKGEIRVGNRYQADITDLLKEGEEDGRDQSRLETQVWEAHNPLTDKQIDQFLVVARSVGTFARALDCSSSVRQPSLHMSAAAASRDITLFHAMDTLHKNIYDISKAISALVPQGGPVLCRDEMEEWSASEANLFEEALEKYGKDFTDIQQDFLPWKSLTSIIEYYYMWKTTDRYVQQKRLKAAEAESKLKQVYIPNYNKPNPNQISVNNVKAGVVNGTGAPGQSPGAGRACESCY
Description: GST pull-down (FIG. 4C).

The next experiment deals with T2, MTA1s-del (human, UniProt Q13330 1-397).
T2 sequence: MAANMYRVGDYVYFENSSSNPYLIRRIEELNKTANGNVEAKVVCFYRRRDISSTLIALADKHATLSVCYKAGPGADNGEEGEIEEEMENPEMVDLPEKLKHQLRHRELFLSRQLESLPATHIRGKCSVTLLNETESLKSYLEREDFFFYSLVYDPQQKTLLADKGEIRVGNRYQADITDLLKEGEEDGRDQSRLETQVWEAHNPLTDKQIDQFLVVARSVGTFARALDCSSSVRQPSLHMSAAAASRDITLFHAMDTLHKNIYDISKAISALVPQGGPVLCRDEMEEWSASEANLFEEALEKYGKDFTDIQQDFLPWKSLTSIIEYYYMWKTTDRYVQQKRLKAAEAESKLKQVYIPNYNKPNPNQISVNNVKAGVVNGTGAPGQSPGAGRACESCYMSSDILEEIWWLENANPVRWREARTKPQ
The experiment can be described thus: GST pull-down (FIG. 4C).

B1: GST-AF2 domain of the ER (receptor, UniProt P03372 282-595, looked up)
chain: SAGDMRAANLWPSPLMIKRSKKNSLALSLTADQMVSALLDAEPPILYSEYDPTRPFSEASMMGLLTNLADRELVHMINWAKRVPGFVDLTLHDQVHLLECAWLEILMIGLVWRSMEHPGKLLFAPNLLLDRNQGKCVEGMVEIFDMLLATSSRFRMMNLQGEEFVCLKSIILLNSGVYTFLSSTLKSLEEKDHIHRVLDKITDTLIHLMAKAGLTLQQQHQRLAQLLLILSHIRHMSNKGMEHLYSMKCKNVVPLYDLLLEMLDAHRLHAPTSRGGASVEETDQSHLATAGSTSSHSLQKYYITGEAEGFPATV
notes: domain: AF2 domain; Immobilized on glutathione-sepharose beads; also called AF2 domain of ERα; not shown: glutathione S-transferase
For the molecule B1, the binding result with MTA1s-stop and with MTA1s-del was “no binding” in each case.
